In paper PMC7610862 (Nature microbiology, 2021):

B1: FlgF (natural protein, Salmonella enterica serovar Typhimurium, UniProt P16323 1-251, looked up)
chain: MDHAIYTAMGAASQTLNQQAVTASNLANASTPGFRAQLNALRAVPVDGLSLATRTLVTASTPGADMTPGQLDYTSRPLDVALQQDGWLVVQAADGAEGYTRNGNIQVGPTGQLTIQGHPVIGEGGPITVPEGSEITIAADGTISALNPGDPPNTVAPVGRLKLVKAEGNEVQRSDDGLFRLTAEAQAERGAVLAADPSIRIMSGVLEGSNVKPVEAMTDMIANARRFEMQMKVITSVDENEGRANQLLSMS
B2: FlgG (natural protein, Salmonella enterica serovar Typhimurium, UniProt P0A1J3 1-260, looked up)
chain: MISSLWIAKTGLDAQQTNMDVIANNLANVSTNGFKRQRAVFEDLLYQTIRQPGAQSSEQTTLPSGLQIGTGVRPVATERLHSQGNLSQTNNSKDVAIKGQGFFQVMLPDGTSAYTRDGSFQVDQNGQLVTAGGFQVQPAITIPANALSITIGRDGVVSVTQQGQAAPVQVGQLNLTTFMNDTGLESIGENLYIETQSSGAPNESTPGLNGAGLLYQGYVETSNVNVAEELVNMIQVQRAYEINSKAVSTTDQMLQKLTQL
B3: FliF (natural protein, Salmonella enterica serovar Typhimurium, UniProt P15928 1-560, looked up)
chain: MSATASTATQPKPLEWLNRLRANPRIPLIVAGSAAVAIVVAMVLWAKTPDYRTLFSNLSDQDGGAIVAQLTQMNIPYRFANGSGAIEVPADKVHELRLRLAQQGLPKGGAVGFELLDQEKFGISQFSEQVNYQRALEGELARTIETLGPVKSARVHLAMPKPSLFVREQKSPSASVTVTLEPGRALDEGQISAVVHLVSSAVAGLPPGNVTLVDQSGHLLTQSNTSGRDLNDAQLKFANDVESRIQRRIEAILSPIVGNGNVHAQVTAQLDFANKEQTEEHYSPNGDASKATLRSRQLNISEQVGAGYPGGVPGALSNQPAPPNEAPIATPPTNQQNAQNTPQTSTSTNSNSAGPRSTQRNETSNYEVDRTIRHTKMNVGDIERLSVAVVVNYKTLADGKPLPLTADQMKQIEDLTREAMGFSDKRGDTLNVVNSPFSAVDNTGGELPFWQQQSFIDQLLAAGRWLLVLVVAWILWRKAVRPQLTRRVEEAKAAQEQAQVRQETEEAVEVRLSKDEQLQQRRANQRLGAEVMSQRIREMSDNDPRVVALVIRQWMSNDHE
B4: FlgH (natural protein, Salmonella enterica serovar Typhimurium, UniProt P0A1N8 22-232, looked up)
chain: CAWIPAKPLVQGATTAQPIPGPVPVANGSIFQSAQPINYGYQPLFEDRRPRNIGDTLTIVLQENVSASKSSSANASRDGKTSFGFDTVPRYLQGLFGNSRADMEASGGNSFNGKGGANASNTFSGTLTVTVDQVLANGNLHVVGEKQIAINQGTEFIRFSGVVNPRTISGSNSVPSTQVADARIEYVGNGYINEAQNMGWLQRFFLNLSPM
modifications: lipidated N-terminal Cys (3 lipid moieties; diacylglycerol attached to the sidechain)
B5: FliE (natural protein, Salmonella enterica serovar Typhimurium, UniProt P26462 1-104, looked up)
chain: MAAIQGIEGVISQLQATAMAARGQDTHSQSTVSFAGQLHAALDRISDRQAAARVQAEKFTLGEPGIALNDVMADMQKASVSMQMGIQVRNKLVAAYQEVMSMQV
B6: FlgC (natural protein, Salmonella enterica serovar Typhimurium, UniProt P0A1I7 1-134, looked up)
chain: MALLNIFDIAGSALAAQSKRLNVAASNLANADSVTGPDGQPYRAKQVVFQVDAAPGQATGGVKVASVIESQAPEKLVYEPGNPLADANGYVKMPNVDVVGEMVNTMSASRSYQANIEVLNTVKSMMLKTLTLGQ
B7: FlgB (natural protein, Salmonella enterica serovar Typhimurium, UniProt P16437 1-138, looked up)
chain: MLDRLDAALRFQQEALNLRAQRQEILAANIANADTPGYQARDIDFASELKKVMVRGREETGGVALTLTSSHHIPAQAVSSPAVDLLYRVPDQPSLDGNTVDMDRERTQFADNSLKYQMGLTVLGSQLKGMMNVLQGGN
B8: FlgI (natural protein, Salmonella enterica serovar Typhimurium, UniProt P15930 20-365, looked up)
chain: ERIRDLTSVQGVRENSLIGYGLVVGLDGTGDQTTQTPFTTQTLNNMLSQLGITVPTGTNMQLKNVAAVMVTASYPPFARQGQTIDVVVSSMGNAKSLRGGTLLMTPLKGVDSQVYALAQGNILVGGAGASAGGSSVQVNQLNGGRITNGAIIERELPTQFGAGNTINLQLNDEDFTMAQQITDAINRARGYGSATALDARTVQVRVPSGNSSQVRFLADIQNMEVNVTPQDAKVVINSRTGSVVMNREVTLDSCAVAQGNLSVTVNRQLNVNQPNTPFGGGQTVVTPQTQIDLRQSGGSLQSVRSSANLNSVVRALNALGATPMDLMSILQSMQSAGCLRAKLEII
B9: FlgD (natural protein, Salmonella enterica serovar Typhimurium, UniProt P0A1I9 1-232, looked up)
chain: MSIAVNMNDPTNTGVKTTTGSGSMTGSNAADLQSSFLTLLVAQLKNQDPTNPLQNNELTTQLAQISTVSGIEKLNTTLGAISGQIDNSQSLQATTLIGHGVMVPGTTILAGKGAEEGAVTSTTPFGVELQQPADKVTATITDKDGRVVRTLEIGELRAGVHTFTWDGKQTDGTTVPNGSYNIAITASNGGTQLVAQPLQFALVQGVTKGSNGNLLDLGTYGTTTLDEVRQII

Columns and labels:
Test in all cases: cryo-EM structure
FliF = biological target: B3
FlgG = biological target: B2
cryo-EM structure = biological target: the molecule itself
FlgI = biological target: B8
FliP = biological target: T1, FliP (Salmonella enterica serovar Typhimurium, UniProt P54700 22-245)
T1 sequence (looked up): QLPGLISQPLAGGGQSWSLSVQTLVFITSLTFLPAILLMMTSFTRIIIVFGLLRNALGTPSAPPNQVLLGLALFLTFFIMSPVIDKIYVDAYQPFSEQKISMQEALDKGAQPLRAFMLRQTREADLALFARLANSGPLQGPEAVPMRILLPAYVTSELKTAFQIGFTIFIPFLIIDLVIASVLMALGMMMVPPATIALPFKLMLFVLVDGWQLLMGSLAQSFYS

FlgB = biological target: B7
FlgF = biological target: B1

| Binder | binding result (FliF) | stoichiometry N (cryo-EM structure) | further results |
| --- | --- | --- | --- |
| B1 | binds | 5 copies | binding result (FlgG): binds |
| B2 | – | 24 copies | binding result (FlgI): binds |
| B3 | – | 34 | – |
| B4 | – | 26 copies | binding result (FlgI): binds |
| B5 | – | – | binding result (FliP): binds; binding result (FlgB): binds |
| B6 | binds | 6 copies | binding result (FlgB): binds; binding result (FlgF): binds |
| B7 | binds | 5 copies | – |
| B8 | – | 26 copies | – |
| B9 | – | 5 | binding result (FlgG): binds |
